We go through two substances from US20230270875A1, “METHODS OF USING ANTI-CD79B IMMUNOCONJUGATES” (Genentech, Inc., priority 2020, published 2023).

For data set [1], the system named is patients with relapsed or refractory follicular lymphoma (R/R FL). As to the kind of experiment: Phase Ib/II study, FL dose-escalation phase: safety (adverse events, DLTs, RP2D) of G+Pola+V. It is filed as in vivo. Particulars: in combination with venetoclax 800 mg and obinutuzumab 1000 mg. An excerpt: This Example describes a Phase Ib/II study evaluating the safety and efficacy of obinutuzumab (G) in combination with polatuzumab vedotin (Pola) and venetoclax (V) in patients with relapsed or refractory follicular lymphoma (R/R FL) and rituximab (R) in combination with polatuzumab vedotin and venetoclax in patients with relapsed or refractory diffuse large B-cell lymphoma (R/R DLBCL).
This Phase Ib/II, open-label, multicenter, non-randomized study evaluated the safety, efficacy, and pharmacokinetics of obinutuzumab (G)+Polatuzumab vedotin (Pola)+venetoclax (V) in patients with R/R FL and rituximab (R)+Pola+V in patients with R/R DLBCL.
This dose-escalation phase included FL patients only.
All patients enrolled in the dose-escalation phase received induction treatment, administered in 21-day cycles as shown in Table 1. […]
The observation period was based on evaluation of dose-limiting toxicities (DLTs) in cycle 1. […] If no additional DLTs were reported, the next dose could be evaluated. […]
Adverse events are assessed according to the adverse event severity grading scale for the NCI CTCAE (v4.0). […]
Laboratory assessments and adverse events (AEs) were assessed throughout the study, with complete blood counts performed on days 1, 8, and 15 of cycle 1, on day 1 of cycles 2-6, and monthly during maintenance treatment. […]

The test system of another data set is patients with R/R NHL. Particulars: human, in vivo; cited from earlier work.

Turning to “polatuzumab vedotin: anti-CD79b immunoconjugate, CAS Registry Number 1313206-42-6; humanized antibody conjugated to MMAE via mc-val-cit-PABC linker”, the “Recommended Phase II dose (RP2D)” value in data set [1] came out at 1.8 mg/kg.

As for obinutuzumab, the “Incidence of Grade 3-4 neutropenia” value in the data set on patients with R/R NHL was 5%.
